{"source": "paper PMC11617691", "about": "“‘GGFGGQ’ repeats in Hfq of Acinetobacter baumannii are essential for nutrient utilization and virulence”", "binders": {"B1": {"name": "D16-FAM (ssRNA)", "RNA": "CGAAUUUUUUAAGUGC"}}, "key": {"Hfq WT": {"molecular_target": "T1, Hfq WT (Acinetobacter baumannii, UniProt V5VC31 1-168)", "T1 sequence": "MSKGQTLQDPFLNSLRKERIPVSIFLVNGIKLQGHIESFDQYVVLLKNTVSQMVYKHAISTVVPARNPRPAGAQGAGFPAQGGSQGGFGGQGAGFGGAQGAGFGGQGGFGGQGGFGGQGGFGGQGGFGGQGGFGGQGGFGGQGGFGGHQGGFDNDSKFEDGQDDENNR", "test": "fluorescence anisotropy; Kd printed only in figure; TNK buffer: 10 mM Tris-HCl pH 7.5, 50 mM NaCl, 50 mM KCl; 50 nM D16-FAM; 30 °C; 100 µl", "settings": "protein: recombinant; tags: none (tag-free, stop codon in pET-28); chain copies: 6; label: 5'-FAM"}, "Hfq66": {"molecular_target": "T2, Hfq66 (Acinetobacter baumannii, UniProt V5VC31 1-66)", "T2 sequence": "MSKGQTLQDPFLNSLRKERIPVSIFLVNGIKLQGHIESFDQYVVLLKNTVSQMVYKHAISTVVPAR", "test": "fluorescence anisotropy; higher affinity (lower Kd) than WT; Kd printed only in figure; TNK buffer: 10 mM Tris-HCl pH 7.5, 50 mM NaCl, 50 mM KCl; 50 nM D16-FAM; 30 °C; 100 µl", "settings": "protein: recombinant; tags: none (tag-free); chain copies: 6; label: 5'-FAM"}}}
{"binder": "B1", "values": [{"measurement": "binding result", "setting": "Hfq WT", "value": "binds"}, {"measurement": "binding result", "setting": "Hfq66", "value": "binds"}]}
